The assay has as its target CagV (Helicobacter pylori (endogenous in strain 26695)). Kind of assay: cross-linking; 5 mM DSP added to wild‐type H. pylori extract (0.1% DDM, 0.2% sarcosine) on ice for 25 min; SDS/PAGE and western blot with anti‐CagV antibody (mice); ΔcagV extract as control. A general note: In western blotting, separated proteins are transferred to a membrane and probed.

Turning to CagV (natural protein), the stoichiometry N came out at 2.

For orientation: stoichiometry N means a count of units in the complex or per binding partner.

Values taken from article PMC5494299.
